Data published in paper PMC4036514, “Requirement for A-type cyclin-dependent kinase and cyclins for the terminal division in the stomatal lineage of Arabidopsis”.

T1: His-FLP (FOUR LIPS) (Arabidopsis thaliana, UniProt Q94FL6 1-436)
T1 sequence: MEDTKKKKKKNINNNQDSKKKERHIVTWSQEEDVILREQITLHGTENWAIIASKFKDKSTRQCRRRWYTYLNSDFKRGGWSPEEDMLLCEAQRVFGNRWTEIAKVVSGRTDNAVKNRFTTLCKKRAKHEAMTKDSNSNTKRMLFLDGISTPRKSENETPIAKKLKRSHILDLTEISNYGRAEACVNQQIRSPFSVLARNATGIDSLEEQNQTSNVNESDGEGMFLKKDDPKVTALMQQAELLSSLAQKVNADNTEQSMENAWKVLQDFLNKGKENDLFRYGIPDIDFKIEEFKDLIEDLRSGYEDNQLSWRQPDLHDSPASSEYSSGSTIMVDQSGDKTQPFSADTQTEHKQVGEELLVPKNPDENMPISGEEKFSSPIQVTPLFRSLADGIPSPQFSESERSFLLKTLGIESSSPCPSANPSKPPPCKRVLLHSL

T2: His-MYB88 (Arabidopsis thaliana, UniProt F4IRB4 1-484)
T2 sequence: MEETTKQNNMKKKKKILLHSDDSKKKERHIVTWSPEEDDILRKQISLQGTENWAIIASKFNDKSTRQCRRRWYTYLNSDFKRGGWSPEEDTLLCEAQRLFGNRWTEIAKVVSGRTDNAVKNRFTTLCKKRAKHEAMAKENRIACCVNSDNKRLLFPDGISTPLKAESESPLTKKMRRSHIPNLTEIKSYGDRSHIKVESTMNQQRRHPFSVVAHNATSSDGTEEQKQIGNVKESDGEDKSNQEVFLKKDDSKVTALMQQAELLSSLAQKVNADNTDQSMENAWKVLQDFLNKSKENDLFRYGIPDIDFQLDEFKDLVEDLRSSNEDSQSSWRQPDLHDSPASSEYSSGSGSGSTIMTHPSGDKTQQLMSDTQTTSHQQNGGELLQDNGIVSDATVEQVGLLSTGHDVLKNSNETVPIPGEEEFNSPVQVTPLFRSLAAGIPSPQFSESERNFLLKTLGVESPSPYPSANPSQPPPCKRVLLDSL

B1: pCDKA-A (element A) (dsDNA)
DNA 1: TAATAAATAAAATTGTACCAAATTAATGCGGTTAGGTAAATTCAATTTATTGGAAATTA
DNA 2: TAATTTCCAATAAATTGAATTTACCTAACCGCATTAATTTGGTACAATTTTATTTATTA
B2: pCDKA-B (element B) (dsDNA)
DNA 1: CTTGACACAAAAAAAAAAAAAGAAGAAAGAAAAAACCCTTACTCTCAATTAGTCAATCC
DNA 2: GGATTGACTAATTGAGAGTAAGGGTTTTTTCTTTCTTCTTTTTTTTTTTTTGTGTCAAG
B3: pCDKA-C+D (elements C and D) (dsDNA)
DNA 1: TTACTCTCAATTAGTCAATCCCCTTCCCTAGTCCTCCTCTCTTCAAGCTTTTCACAGAA
DNA 2: TTCTGTGAAAAGCTTGAAGAGAGGAGGACTAGGGAAGGGGATTGACTAATTGAGAGTAA

The binders below were run against T1, His-FLP (FOUR LIPS) (assay: EMSA; EMSA: 1x LightShift binding buffer, 2.5% glycerol, 50 mM KCl, 5 mM MgCl2, 0.05% NP-40, 10 mM EDTA, room temperature 20 min; pH not stated). Conditions: protein: recombinant; tags: His (pET-28a); label: 3' biotin; blunt.
B1: binds.
B2: binds.
B3: binds.

The binders below were run against T2, His-MYB88 in the same assay as above. Conditions: protein: recombinant; tags: His (pET-28a); label: 3' biotin; blunt.
B1: binds.
B2: binds.
B3: binds.
